Source: paper PMC9482650, “Quantitative fragmentomics allow affinity mapping of interactomes” (Nature Communications, 2022)

Columns and labels:
Assay in all cases: holdup assay
Set-up in all cases: key: below the threshold = too weak to quantify, mostly under pKd 3.1 to 4
SIPA1L2, Q9P2F8 = target: T1, SIPA1L2, Q9P2F8
T1 sequence (Q9P2F8 945-1036, limits assumed, looked up): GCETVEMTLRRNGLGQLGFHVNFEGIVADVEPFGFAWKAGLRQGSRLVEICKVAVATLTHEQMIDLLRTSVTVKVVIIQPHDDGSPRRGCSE

FRMPD4, Q14CM0 = target: FRMPD4, Q14CM0
IL16_3, Q14005 = target: IL16_3, Q14005
DLG3_2, Q92796 = target: T2, DLG3_2, Q92796
T2 sequence (Q92796 221-321, limits assumed, looked up): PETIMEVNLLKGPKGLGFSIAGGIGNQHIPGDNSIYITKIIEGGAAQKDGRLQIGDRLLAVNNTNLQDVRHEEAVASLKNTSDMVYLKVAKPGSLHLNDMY

MAGI2_2, Q86UL8 = target: MAGI2_2, Q86UL8
FRMPD1, Q5SYB0 = target: T3, FRMPD1, Q5SYB0
T3 sequence (Q5SYB0 52-145, limits assumed, looked up): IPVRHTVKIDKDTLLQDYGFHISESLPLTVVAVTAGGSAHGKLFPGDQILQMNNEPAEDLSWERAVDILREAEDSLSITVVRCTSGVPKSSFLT

HTRA1, Q92743 = target: HTRA1, Q92743
Inadl_3, Q8NI35 = target: Inadl_3, Q8NI35
SNTG2, Q9NY99 = target: T4, SNTG2, Q9NY99
T4 sequence (Q9NY99 68-166, limits assumed, looked up): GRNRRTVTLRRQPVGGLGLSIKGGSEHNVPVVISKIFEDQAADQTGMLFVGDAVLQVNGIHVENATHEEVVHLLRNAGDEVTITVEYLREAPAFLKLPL

APBA3_1, O96018 = target: T5, APBA3_1, O96018
T5 sequence (O96018 389-490, limits assumed, looked up): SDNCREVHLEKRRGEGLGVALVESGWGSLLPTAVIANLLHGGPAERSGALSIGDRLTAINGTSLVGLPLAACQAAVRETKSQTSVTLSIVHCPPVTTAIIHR

PDZD7_3, Q9H5P4 = target: T6, PDZD7_3, Q9H5P4; conditions: plain residues with an end cap or a label only (N-terminal biotin on a linker: ttds)
T6 sequence (Q9H5P4 857-944, limits assumed, looked up): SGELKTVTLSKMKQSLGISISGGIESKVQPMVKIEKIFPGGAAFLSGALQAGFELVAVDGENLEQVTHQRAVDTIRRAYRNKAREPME

NHERF4_4, Q86UT5 = target: NHERF4_4, Q86UT5
LNX1_2, Q8TBB1 = target: LNX1_2, Q8TBB1
GORASP1, Q9BQQ3 = target: GORASP1, Q9BQQ3
GRIP1_4, Q9Y3R0 = target: T7, GRIP1_4, Q9Y3R0
T7 sequence (Q9Y3R0 467-571, limits assumed, looked up): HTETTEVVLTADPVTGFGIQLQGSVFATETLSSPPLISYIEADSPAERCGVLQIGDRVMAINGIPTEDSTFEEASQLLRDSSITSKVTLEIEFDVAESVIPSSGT

HTRA3, P83110 = target: T8, HTRA3, P83110
T8 sequence (P83110 354-453, limits assumed, looked up): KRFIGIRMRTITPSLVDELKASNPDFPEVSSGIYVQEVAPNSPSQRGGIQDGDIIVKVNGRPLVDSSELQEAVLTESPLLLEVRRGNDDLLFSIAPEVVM

PDZD2_2, O15018 = target: T9, PDZD2_2, O15018
T9 sequence (O15018 329-429, limits assumed, looked up): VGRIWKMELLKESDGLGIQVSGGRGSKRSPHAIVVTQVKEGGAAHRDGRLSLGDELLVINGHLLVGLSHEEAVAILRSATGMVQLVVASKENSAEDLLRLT

GRIP2_7, Q9C0E4 = target: GRIP2_7, Q9C0E4
LIMK2, P53671 = target: LIMK2, P53671
HTRA2, O43464 = target: HTRA2, O43464
Inadl_5, Q8NI35 = target: Inadl_5, Q8NI35
FRMPD2_3, Q68DX3 = target: FRMPD2_3, Q68DX3
GRIP1_5, Q9Y3R0 = target: T10, GRIP1_5, Q9Y3R0
T10 sequence (Q9Y3R0 568-668, limits assumed, looked up): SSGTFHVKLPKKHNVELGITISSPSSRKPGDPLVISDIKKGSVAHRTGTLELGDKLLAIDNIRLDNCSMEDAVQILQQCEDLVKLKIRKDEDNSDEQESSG

MAGI2_6, Q86UL8 = target: MAGI2_6, Q86UL8
TJP3_3, O95049 = target: T11, TJP3_3, O95049
T11 sequence (O95049 375-456, limits assumed, looked up): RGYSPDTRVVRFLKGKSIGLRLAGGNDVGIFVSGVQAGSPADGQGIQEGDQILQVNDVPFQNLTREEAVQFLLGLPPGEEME

TJP1_3, Q07157 = target: TJP1_3, Q07157
[1] = plain residues with an end cap or a label only (N-terminal biotin on a linker: ttds)
[2] = plain residues with an end cap or a label only (N-terminal biotin on a linker: ahx)

Chain of IL16_3, Q14005 (Q14005 1107-1207): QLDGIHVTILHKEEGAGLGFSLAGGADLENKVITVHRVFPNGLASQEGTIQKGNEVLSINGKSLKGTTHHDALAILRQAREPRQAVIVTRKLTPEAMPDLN
Chain of Inadl_3, Q8NI35 (Q8NI35 359-469): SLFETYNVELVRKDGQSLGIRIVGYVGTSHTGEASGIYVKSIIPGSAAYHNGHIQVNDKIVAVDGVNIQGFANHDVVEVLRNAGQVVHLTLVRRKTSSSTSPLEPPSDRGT
Chain of HTRA2, O43464 (O43464 355-458): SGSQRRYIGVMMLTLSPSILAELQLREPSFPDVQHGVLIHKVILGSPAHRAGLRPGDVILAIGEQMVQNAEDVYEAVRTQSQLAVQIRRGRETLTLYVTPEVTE
Chain of GRIP2_7, Q9C0E4 (Q9C0E4 934-1023): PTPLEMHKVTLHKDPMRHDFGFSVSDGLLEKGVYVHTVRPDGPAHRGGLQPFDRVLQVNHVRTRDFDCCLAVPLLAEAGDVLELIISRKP
Chain of TJP1_3, Q07157 (Q07157 416-512): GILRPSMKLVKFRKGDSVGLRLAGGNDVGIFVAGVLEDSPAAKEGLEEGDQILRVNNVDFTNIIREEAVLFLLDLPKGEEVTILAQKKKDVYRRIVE
Chain of FRMPD4, Q14CM0 (Q14CM0 67-160): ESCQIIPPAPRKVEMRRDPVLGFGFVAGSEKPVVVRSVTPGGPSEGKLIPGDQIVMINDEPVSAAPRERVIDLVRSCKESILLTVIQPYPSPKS
Chain of LIMK2, P53671 (P53671 143-248): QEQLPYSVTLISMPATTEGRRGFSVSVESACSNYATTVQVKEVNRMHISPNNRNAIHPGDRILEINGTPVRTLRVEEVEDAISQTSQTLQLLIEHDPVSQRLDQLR
Chain of MAGI2_6, Q86UL8 (Q86UL8 1141-1229): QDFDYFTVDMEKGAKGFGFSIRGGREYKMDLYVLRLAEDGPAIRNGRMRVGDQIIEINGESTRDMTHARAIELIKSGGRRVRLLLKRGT
Chain of MAGI2_2, Q86UL8 (Q86UL8 410-522): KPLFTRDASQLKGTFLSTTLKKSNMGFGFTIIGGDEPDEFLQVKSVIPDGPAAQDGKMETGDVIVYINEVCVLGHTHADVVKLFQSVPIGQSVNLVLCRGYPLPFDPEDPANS
Chain of GORASP1, Q9BQQ3 (Q9BQQ3 1-208): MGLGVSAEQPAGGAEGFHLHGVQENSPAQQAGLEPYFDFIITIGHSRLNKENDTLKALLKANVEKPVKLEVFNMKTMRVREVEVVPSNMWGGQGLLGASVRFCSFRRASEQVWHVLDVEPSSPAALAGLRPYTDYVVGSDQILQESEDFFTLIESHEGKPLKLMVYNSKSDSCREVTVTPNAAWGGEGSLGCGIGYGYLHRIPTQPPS
Chain of HTRA1, Q92743 (Q92743 360-477): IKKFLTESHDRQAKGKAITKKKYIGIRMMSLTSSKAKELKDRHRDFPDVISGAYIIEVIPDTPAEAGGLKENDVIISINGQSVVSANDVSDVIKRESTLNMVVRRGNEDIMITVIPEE
Chain of LNX1_2, Q8TBB1 (Q8TBB1 371-470): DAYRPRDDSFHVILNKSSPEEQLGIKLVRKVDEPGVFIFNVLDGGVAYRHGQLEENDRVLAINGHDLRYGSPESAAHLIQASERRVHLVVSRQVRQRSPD
Chain of Inadl_5, Q8NI35 (Q8NI35 673-780): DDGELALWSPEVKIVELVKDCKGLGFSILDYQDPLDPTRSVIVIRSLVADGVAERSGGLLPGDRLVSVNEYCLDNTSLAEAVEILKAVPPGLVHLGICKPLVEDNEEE
Chain of FRMPD2_3, Q68DX3 (Q68DX3 1073-1166): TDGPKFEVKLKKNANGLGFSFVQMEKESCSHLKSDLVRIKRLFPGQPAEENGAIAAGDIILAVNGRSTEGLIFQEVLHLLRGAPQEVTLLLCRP
Chain of NHERF4_4, Q86UT5 (Q86UT5 464-550): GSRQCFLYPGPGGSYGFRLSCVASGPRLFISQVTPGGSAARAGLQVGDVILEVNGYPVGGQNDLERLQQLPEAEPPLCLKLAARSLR

For QRQARSETLV [HPV59-E6, Q81964], which pKd (SIPA1L2, Q9P2F8; [1]) is on record?
Its pKd is “below the threshold”.

And the pKd (FRMPD4, Q14CM0; [1])?
The pKd was “below the threshold”.

What about the pKd (IL16_3, Q14005; [1]) of the same binder?
Its pKd is “below the threshold”.

What about the pKd (DLG3_2, Q92796; [1]) of the same binder?
Its pKd is 5.17.

What about the pKd (MAGI2_2, Q86UL8; [1]) of the same binder?
Its pKd is 6.07.

What about the pKd (FRMPD1, Q5SYB0; [1]) of the same binder?
Its pKd is “below the threshold”.

What about the pKd (HTRA1, Q92743; [1]) of the same binder?
Its pKd is 4.14.

And the pKd (Inadl_3, Q8NI35; [1])?
Its pKd is “below the threshold”.

And the pKd (SNTG2, Q9NY99; [1])?
The pKd was 4.05.

And the pKd (APBA3_1, O96018; [1])?
The pKd was “below the threshold”.

And the pKd (PDZD7_3, Q9H5P4)?
Its pKd is 4.72.

What about the pKd (NHERF4_4, Q86UT5; [1]) of the same binder?
The pKd was “below the threshold”.

And the pKd (LNX1_2, Q8TBB1; [1])?
The pKd was 4.25.

And the pKd (GORASP1, Q9BQQ3; [1])?
The pKd was “below the threshold”.

What about the pKd (GRIP1_4, Q9Y3R0; [1]) of the same binder?
The pKd was “below the threshold”.

And the pKd (HTRA3, P83110; [1])?
Its pKd is 3.69.

And the pKd (PDZD2_2, O15018; [1])?
The pKd was 4.37.

What about the pKd (GRIP2_7, Q9C0E4; [1]) of the same binder?
The pKd was “below the threshold”.

And the pKd (LIMK2, P53671; [1])?
Its pKd is “below the threshold”.

And the pKd (HTRA2, O43464; [1])?
Its pKd is “below the threshold”.

What about the pKd (Inadl_5, Q8NI35; [1]) of the same binder?
The pKd was 3.9.

And the pKd (FRMPD2_3, Q68DX3; [1])?
The pKd was “below the threshold”.

And the pKd (GRIP1_5, Q9Y3R0; [1])?
Its pKd is “below the threshold”.

And the pKd (MAGI2_6, Q86UL8; [1])?
Its pKd is 3.74.

And the pKd (TJP3_3, O95049; [1])?
Its pKd is 3.7.

And the pKd (TJP1_3, Q07157; [1])?
Its pKd is “below the threshold”.

Which pKd (SIPA1L2, Q9P2F8; [1]) does the source give for NDPAWDETNL [ARHGEF7, Q14155;Q14155-1] here?
Its pKd is “below the threshold”.

What about the pKd (FRMPD4, Q14CM0; [1]) of the same binder?
Its pKd is 4.66.

What about the pKd (IL16_3, Q14005; [1]) of the same binder?
The pKd was “below the threshold”.

And the pKd (DLG3_2, Q92796; [1])?
Its pKd is “below the threshold”.

And the pKd (MAGI2_2, Q86UL8; [1])?
Its pKd is “below the threshold”.

And the pKd (FRMPD1, Q5SYB0; [1])?
The pKd was “below the threshold”.

And the pKd (HTRA1, Q92743; [1])?
Its pKd is 3.92.

And the pKd (Inadl_3, Q8NI35; [1])?
Its pKd is “below the threshold”.

What about the pKd (SNTG2, Q9NY99; [1]) of the same binder?
Its pKd is 4.22.

What about the pKd (APBA3_1, O96018; [1]) of the same binder?
Its pKd is “below the threshold”.

What about the pKd (PDZD7_3, Q9H5P4) of the same binder?
The pKd was 4.24.

What about the pKd (NHERF4_4, Q86UT5; [1]) of the same binder?
Its pKd is “below the threshold”.

And the pKd (LNX1_2, Q8TBB1; [1])?
Its pKd is “below the threshold”.

And the pKd (GORASP1, Q9BQQ3; [1])?
The pKd was “below the threshold”.

And the pKd (GRIP1_4, Q9Y3R0; [1])?
Its pKd is “below the threshold”.

And the pKd (HTRA3, P83110; [1])?
Its pKd is “below the threshold”.

And the pKd (GRIP2_7, Q9C0E4; [1])?
Its pKd is “below the threshold”.

And the pKd (LIMK2, P53671; [1])?
Its pKd is “below the threshold”.

What about the pKd (HTRA2, O43464; [1]) of the same binder?
The pKd was “below the threshold”.

And the pKd (Inadl_5, Q8NI35; [1])?
Its pKd is “below the threshold”.

And the pKd (FRMPD2_3, Q68DX3; [1])?
Its pKd is “below the threshold”.

What about the pKd (GRIP1_5, Q9Y3R0; [1]) of the same binder?
Its pKd is “below the threshold”.

What about the pKd (MAGI2_6, Q86UL8; [1]) of the same binder?
Its pKd is 3.92.

What about the pKd (TJP3_3, O95049; [1]) of the same binder?
Its pKd is “below the threshold”.

And the pKd (TJP1_3, Q07157; [1])?
Its pKd is “below the threshold”.

Which pKd (SIPA1L2, Q9P2F8; [2]) does the source give for PSASCAVTAA [PDLIM4, P50479;P50479-2] here?
Its pKd is “below the threshold”.

And the pKd (FRMPD4, Q14CM0; [2])?
The pKd was “below the threshold”.

And the pKd (IL16_3, Q14005; [2])?
Its pKd is “below the threshold”.

What about the pKd (DLG3_2, Q92796; [2]) of the same binder?
Its pKd is “below the threshold”.

What about the pKd (MAGI2_2, Q86UL8; [2]) of the same binder?
The pKd was “below the threshold”.

And the pKd (FRMPD1, Q5SYB0; [2])?
Its pKd is “below the threshold”.

And the pKd (HTRA1, Q92743; [2])?
The pKd was “below the threshold”.

What about the pKd (Inadl_3, Q8NI35; [2]) of the same binder?
The pKd was “below the threshold”.

And the pKd (SNTG2, Q9NY99; [2])?
Its pKd is “below the threshold”.

What about the pKd (APBA3_1, O96018; [2]) of the same binder?
Its pKd is “below the threshold”.

What about the pKd (NHERF4_4, Q86UT5; [2]) of the same binder?
The pKd was “below the threshold”.

What about the pKd (LNX1_2, Q8TBB1; [2]) of the same binder?
Its pKd is “below the threshold”.

And the pKd (GORASP1, Q9BQQ3; [2])?
Its pKd is “below the threshold”.

And the pKd (GRIP1_4, Q9Y3R0; [2])?
The pKd was “below the threshold”.

And the pKd (HTRA3, P83110; [2])?
The pKd was “below the threshold”.

What about the pKd (PDZD2_2, O15018; [2]) of the same binder?
Its pKd is “below the threshold”.

And the pKd (GRIP2_7, Q9C0E4; [2])?
The pKd was “below the threshold”.

And the pKd (LIMK2, P53671; [2])?
Its pKd is “below the threshold”.

And the pKd (HTRA2, O43464; [2])?
The pKd was “below the threshold”.

And the pKd (Inadl_5, Q8NI35; [2])?
The pKd was “below the threshold”.

What about the pKd (FRMPD2_3, Q68DX3; [2]) of the same binder?
The pKd was “below the threshold”.

And the pKd (GRIP1_5, Q9Y3R0; [2])?
The pKd was “below the threshold”.

What about the pKd (MAGI2_6, Q86UL8; [2]) of the same binder?
Its pKd is “below the threshold”.

And the pKd (TJP3_3, O95049; [2])?
Its pKd is “below the threshold”.

And the pKd (TJP1_3, Q07157; [2])?
Its pKd is “below the threshold”.
